The values that follow are results of earlier work, collected in publication PMC5358871.

What is called Kd is the constant that tells how readily two partners part at equilibrium.

The series concerns the target Bfd (Pseudomonas aeruginosa) (UniProt Q9HY80). The experiment in a line: SPR, ITC. (In general: In SPR one partner is held on a chip, and binding of the other changes the refractive index at the surface.)
Chain of UniProt Q9HY80 (Q9HY80 whole entry): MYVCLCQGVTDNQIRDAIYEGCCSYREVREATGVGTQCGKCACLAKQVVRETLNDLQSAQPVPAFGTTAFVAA

BfrB (from UniProt Q9HY79): the Kd is 3000 nM.
